# Source: patent US5591825A, “Interleukin 4 signal transducers” (Tularik, Inc., priority 1994, dated 1997)
# Non-standard residues stand in square brackets, D forms with d. pY = N[C@@H](Cc1ccc(OP(=O)(O)O)cc1)C(=O)O
# Target: T1, IL-4 Stat (Homo sapiens, UniProt P42226)
# T1 construct: Samples of nuclear extract prepared from IL-4 induced Thp-1 cells were incubated with individual phosphopeptides; endogenous in cells; host or cells: Thp-1 cells, IL-4 induced, nuclear extract
# T1 sequence (P42226 1-847): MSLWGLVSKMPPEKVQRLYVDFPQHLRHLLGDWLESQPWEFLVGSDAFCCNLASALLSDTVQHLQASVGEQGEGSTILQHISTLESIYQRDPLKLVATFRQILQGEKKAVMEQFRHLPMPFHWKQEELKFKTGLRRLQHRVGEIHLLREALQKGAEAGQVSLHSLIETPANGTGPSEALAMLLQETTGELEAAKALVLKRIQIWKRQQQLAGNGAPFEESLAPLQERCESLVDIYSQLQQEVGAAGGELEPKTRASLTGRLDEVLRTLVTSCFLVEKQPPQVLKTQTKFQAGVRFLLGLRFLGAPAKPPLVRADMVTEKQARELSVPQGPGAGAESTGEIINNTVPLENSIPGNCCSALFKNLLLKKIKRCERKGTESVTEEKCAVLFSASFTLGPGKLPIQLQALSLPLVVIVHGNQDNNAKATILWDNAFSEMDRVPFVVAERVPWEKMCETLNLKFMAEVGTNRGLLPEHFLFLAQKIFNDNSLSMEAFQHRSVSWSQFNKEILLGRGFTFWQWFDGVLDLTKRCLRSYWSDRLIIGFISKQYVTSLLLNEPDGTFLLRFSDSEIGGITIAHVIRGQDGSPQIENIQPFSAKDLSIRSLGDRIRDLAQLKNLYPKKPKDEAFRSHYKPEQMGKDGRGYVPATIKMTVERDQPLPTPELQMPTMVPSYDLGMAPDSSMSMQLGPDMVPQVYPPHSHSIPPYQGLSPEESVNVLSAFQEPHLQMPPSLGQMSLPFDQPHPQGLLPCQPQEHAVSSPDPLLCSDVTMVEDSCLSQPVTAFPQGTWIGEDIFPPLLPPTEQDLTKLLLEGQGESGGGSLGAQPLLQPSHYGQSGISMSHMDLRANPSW
# Test: Gel mobility shift assay of IL-4 Stat DNA binding in nuclear extract of IL-4 induced Thp-1 cells
# Type: biochemical
# Conditions: nuclear extract from IL-4 induced Thp-1 cells
row,Substance,inhibitory effect on DNA binding by activated IL-4 Stat
1,NH2-ASS GEE GYKP FQD LI(SEQ ID NO:11)-COOH (H-ASSGEEG[pY]KPFQDLI-OH; SMILES CC[C@H](C)[C@H](NC(=O)[C@H](CC(C)C)NC(=O)[C@H](CC(=O)O)NC(=O)[C@H](CCC(N)=O)NC(=O)[C@H](Cc1ccccc1)NC(=O)[C@@H]1CCCN1C(=O)[C@H](CCCCN)NC(=O)[C@H](Cc1ccc(OP(=O)(O)O)cc1)NC(=O)CNC(=O)[C@H](CCC(=O)O)NC(=O)[C@H](CCC(=O)O)NC(=O)CNC(=O)[C@H](CO)NC(=O)[C@H](CO)NC(=O)[C@H](C)N)C(=O)O),inhibitory
2,NH2-GPP GEA GYKA FSS LL(SEQ ID NO:10)-COOH (H-GPPGEAG[pY]KAFSSLL-OH; SMILES CC(C)C[C@H](NC(=O)[C@H](CC(C)C)NC(=O)[C@H](CO)NC(=O)[C@H](CO)NC(=O)[C@H](Cc1ccccc1)NC(=O)[C@H](C)NC(=O)[C@H](CCCCN)NC(=O)[C@H](Cc1ccc(OP(=O)(O)O)cc1)NC(=O)CNC(=O)[C@H](C)NC(=O)[C@H](CCC(=O)O)NC(=O)CNC(=O)[C@@H]1CCCN1C(=O)[C@@H]1CCCN1C(=O)CN)C(=O)O),inhibitory
